# Test: yeast display, Sf9 membrane polyspecificity reagent, FACS + sequencing; frameworks hold sequencing errors
# Procedure, shortened: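 Galactose-induced (36–48 hours) yeast carrying a synthetic nanobody display library were exposed to 10% biotinylated, detergent-solubilized Sf9 membrane reagent at 4 °C for 1 hour. FACS followed streptavidin microbead enrichment, using low and high (top ~1%) gates for expression (anti-HA) and reagent binding (streptavidin). Colony PCR, MiSeq 2 × 250 sequencing and CDR-length filtering followed. Labels for polyreactivity reflect the gate of origin.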
row,Sequence,polyreactivity (PSR sort gate)
1,QVQLVESGGGLVQAGGSLRLSCAASGFTFNSYAMGWYRQAPGKERELVAAITSSGGRTYYADSVKGRFTISRDNAKNTVYLQMNSLKPEDTAVYYCAARRGGKVATIYDYWGQGTQVTVSS,low polyreactivity
2,QVQLVESGGGLVQAGGSLRLSCAASGFTFNTNAMGWYRQAPGKERELVAAITSSGGSTYYADSVKGRFTISRDNAKNTVYLQMNSLKPEDTAVYYCNADVTLRLWAYYYYRYNYWGQGTQVTVSS,low polyreactivity
3,QVQLVESGGGLVQAGGSLRLSCAASGFTFNVYAMGWYRQAPGKERELVARITRRGGSTYYADSVKGRFTISRDNAKNTVYLQMNSLKPEDTAVYYCNADSPVVSGRGGRRSAYLNDYWGQGTKVTVSS,high polyreactivity
4,QVQLVESGGGLVQAGGSLRLSCAASGFTFNWYAMGWYRQAPGKERELVAAINSSGGNTYYADSVKGRFTISRDNAKNTVYLQMNSLKPEDTAVYYCAALLWGYVAFDYWGQGTQVTVSS,high polyreactivity
5,QVQLVESGGGLVQAGGSLRLSCAASGFTFNYNTMGWYRQAPGKERQLVAAISRSGGSTYYADSVKGRITISRDNAKNTVYLQMNSLKPEDTAVFYCAKDTYYPSSRYNRYYYWGQGTQVTVSS,high polyreactivity
6,QVQLVESGGGLVQAGGSLRLSCAASGFTFNYYAMGWYRQAPGKERELVAAISGRGGSTYYADSVKGRFTISRDNAKNTVYLQMNSLIPEDTAVYYCAADYWYDYYSTEYDYWGQGTQVTVSS,low polyreactivity
7,QVQLVESGGGLVQAGGSLRLSCAASGFTFPAYTMGWYRQAPGKERELVSAITSSGGNTYYADSVKGRFTISRDNAKNTVYLQMNSLKPEDTAVYYCSTVSVRGPSYDHVRYDYWGQGTQVTVSS,low polyreactivity
8,QVQLVESGGGLVQAGGSLRLSCAASGFTFPDYAMGWYRQAPGKERELVAAISSDGSTYYADSVKGRFTISRDNAKNTVYLQMNSLKPEDTAVYYCAAYVVWLYGYDYWGQGTKVTVSS,low polyreactivity
9,QVQLVESGGGLVQAGGSLRLSCAASGFTFPFYTMGWYRQAPGKERELVAAISRGGSTNYADSVKGRFTISRDNAKNTVYLQMNSLKPEDTAVSYCNKRYYRDLIGYYWGQGTQVTVSS,high polyreactivity
10,QVQLVESGGGLVQAGGSLRLSCAASGFTFPIYAMGWYRQAPGKEREFVAAITRSGVSTYYADSVKGRFTISRDNAKNTVYLQMNSLKPEDTAVYYCAARYKGRAFWMDYWGQGTQVTVSS,high polyreactivity
11,QVQLVESGGGLVQAGGSLRLSCAASGFTFPNAMGWYRQAPGKERELVATISSSGGSTYYADSVKGRFTISRDNAKNTVYLQMNSLKPEDTAVYYCAARTRQYWIYRAYRDDYWGQGTQVTVSS,low polyreactivity
12,QVQLVESGGGLVQAGGSLRLSCAASGFTFPPYAMGWYIQAPGKERELVAGISWIGSSTYYADSVKGRFTISRDNAKNTVYLQMNSLKPEDTAVYYCNARYLLFAGGRRYYWGQGTQVTVSS,high polyreactivity
13,QVQLVESGGGLVQAGGSLRLSCAASGFTFPRYAMGWYRQAPGKERELVAAITVGGGRTYYADSVKGRFTISRDNAKNTVYLQMNSLKPEDTAVYYCAADSHASTYDYWGQGTQVTVSS,low polyreactivity
14,QVQLVESGGGLVQAGGSLRLSCAASGFTFPRYAMGWYRQAPGKERELVAVITRRGGSTYYADSVKGRFTISRDNAKNTVYLQMNSLKPEDTAVYDCAASDPSNKSSRPGYSYDSDSWGQGTQVTVSS,high polyreactivity
15,QVQLVESGGGLVQAGGSLRLSCAASGFTFPSYTMGWYRQAPGKERELVAAISWSGGRTYYADSVKGRFTISRDNAKITVYLQKNSLKPEETAVYYCAAGYRTGGDSGDYWGQGTQVTVSS,high polyreactivity
16,QVQLVESGGGLVQAGGSLRLSCAASGFTFPTYAMVWYRQAPGKERELVAAITRGGSTYYADSVKGRFTISRDNAKYTVYLQMNSLKPEDTAVYYCAADDPWYEEDYWGQGTQVTVSS,low polyreactivity
17,QVQLVESGGGLVQAGGSLRLSCAASGFTFPWYAMGWYRQAPGKERELVASISYRGDSTYYADSVKGRFTISRDNAKNTVYLQMNSLKPEDTAVYYCNTRLASYYLPGFDYWGQGTQVTVSS,low polyreactivity
18,QVQLVESGGGLVQAGGSLRLSCAASGFTFPYYAMGWYRQAPGKERELVAAISKSGGSTYFADSVKGRFTISRDNAKNTVYLQMNSLKPEDTAVYYCAAQGGSKYRGYYYWGQGTQVTVSS,high polyreactivity
19,QVQLVESGGGLVQAGGSLRLSCAASGFTFPYYAMGWYRQAPVKERELVAAISYNGGSTYYADSVKGRFTISRDNAKNNVYLQMNSLKPEDTAVYYCNAVYYDSGVVGYYYWGQGTQVTVSS,high polyreactivity
20,QVQLVESGGGLVQAGGSLRLSCAASGFTFPYYAVGWYRQAPGKERELVAAISKGGTRTYYADSVKGRFTISRDNAKNTVYLQMNSLKPEDTAVYYCAATRIYQEMDYWGQGTQVTVSS,high polyreactivity
21,QVQLVESGGGLVQAGGSLRLSCAASGFTFQDNAMGWYRHAPGKERELVASITGSGGSTYYADSVKGRFTISRDNAKNTVYLQMNSLKPEDTAVYYCAAETYTRSALVLYGSREMEYWGQGTQVTVSS,low polyreactivity
22,QVQLVESGGGLVQAGGSLRLSCAASGFTFQFYDMGWYRQAPGTEREFVATITSSGGSTYYADSVKGRFTISRDNAKNTVYLQMNSLKPEDPAVYYCANDKLFFYRVGSDYWGQGTQVTVSS,low polyreactivity

row,Sequence,polyreactivity (PSR sort gate)
1,QVQLVESGGGLVQAGGSLRLSCAASGFTFQRYAMGWYRQAPGKERELVADISRSGGSTYYADSVKGRFTISRDNAKNTVYLQMNSLKPEDTAVYYCAAGYPGYDSYYKFYYWGQGTQVTVSS,high polyreactivity
2,QVQLVESGGGLVQAGGSLRLSCAASGFTFQSYAMGWYRQAPGKERELVATIRTRGGSTSYADSVKGRFTISRDNAKNTVYLQMNSLKPEDTAVYYCNGRLSYRSAWYYGGDRYDYWGQGTQVTVSS,high polyreactivity
3,QVQLVESGGGLVQAGGSLRLSCAASGFTFQTYAMGWYRQAPGKERELVATINSSGGGTYYADSVKGRFTISRDNAKNTVYLQMNSLKPEDTAVYYCAADAVWFVGQAFDISDSTTYGYWGQGTQVTVSS,low polyreactivity
4,QVQLVESGGGLVQAGGSLRLSCAASGFTFQVNTMGWYRQAPGKERELVAAISWSGGSTYYADSVKGRFTISRDNAKNTVYLQMNSLKPEDTAVYYCNAVPVSYRGGYWGQGTQVTVSS,low polyreactivity
5,QVQLVESGGGLVQAGGSLRLSCAASGFTFRANGMGWYRQAPGKERELVATITSGGTTNYADSVKGRFTISRDNAKNTVYFQMNSLKPEDTAVLYCAKRFGPAYFRLYDYWGQGTQVTVSS,low polyreactivity
6,QVQLVESGGGLVQAGGSLRLSCAASGFTFRANGMGWYRQAPGKERELVATITSGGTTNYADSVKGRFTISRDNAKNTVYLQMNSLKPEDTAVYYCAKRFGPAYFRLYDYWGQGTQVTVSS,low polyreactivity
7,QVQLVESGGGLVQAGGSLRLSCAASGFTFRAYAMGWYRPAPAKERELVAAISTGGGSTYYADSVKGRFTISRDIAKHTVYLQLNSLKPEDTAVYYCNALPQRRYYYWGQGTQVTVSS,high polyreactivity
8,QVQLVESGGGLVQAGGSLRLSCAASGFTFRAYAMGWYRQAPGKERELVAAISTGGGSTYYADSVKGRFTISRDNEKNTVYLQMNSLKPEDTAVYYCNALPQRRYYYWGQGTQVTVSS,high polyreactivity
9,QVQLVESGGGLVQAGGSLRLSCAASGFTFRAYTMGWYRQAPGKERELVAAITYSGGRTYYADSVKGRFTISRDNAKNTVYLQMNSLKPEDTAVYYCAKRGWALSEYYYWGQGTQVTVSS,high polyreactivity
10,QVQLVESGGGLVQAGGSLRLSCAASGFTFRENAMGWSRQAPGKERELVAAISSSGGSTYYADSVKGRFTISRDNAKNTVYLQMNSLKPEDTAVYYCAADATLSFDYWGQGTQVTVSS,high polyreactivity
11,QVQLVESGGGLVQAGGSLRLSCAASGFTFRFYAMGWYRQAPGKERELVAVITSRGTRTYYADSVKGRFTISRDNAKNTVYLQMNSLKPEDTAVYFCAKDFAFNGGISKYDYWGQGTQVTVSS,high polyreactivity
12,QVQLVESGGGLVQAGGSLRLSCAASGFTFRFYGMGWYRQAPGKERELVAAISSRGTTTYYADSVKGRFTISRDNAKNTVYLQMNSLKPEDTAVYYCNKEYTTYGYDLEYDYWGLGTQVTVSS,low polyreactivity
13,QVQLVESGGGLVQAGGSLRLSCAASGFTFRGNAMGWYRQAPGKERELVAAITSSDDSTYYADSVKGRFTISRDNAKNTVYLQMNSLKPEDTAVYYCAVYFFSFWGQGTQVTVSS,low polyreactivity
14,QVQLVESGGGLVQAGGSLRLSCAASGFTFRGYAMGWYRQAPGKERELVASISYRGDSTYYADSVKGRFTISRDNAKNTVYLQMNSLKPADTAGYYCNKLLASYYLPGFDYWGQGTQVTVSS,low polyreactivity
15,QVQLVESGGGLVQAGGSLRLSCAASGFTFRGYAMGWYRQAPGKERELVAVISSGGSTNYADSVKGRFTISRDNAKNTVYLQMNSLKPEDTAVYYCNAGYWFRYYGGDYYLGGLNYYWGQGTQVTVSS,low polyreactivity
16,QVQLVESGGGLVQAGGSLRLSCAASGFTFRGYDMGWYRQAPGKERELVATISSGGRTYYADSVKGRFTISRDNAKNTVYLQMNSLKPEDTAVYYCAAPRFGRLAFDFWGQGSQVTVSS,low polyreactivity
17,QVQLVESGGGLVQAGGSLRLSCAASGFTFRGYTMGWYRQAPGKERELVAAITRSGTTTYYADSVKGRFTISRDNAKNTVYLQMNSLKPEDTAVYYCATAKFYRQYGYWGQGTQVTVSS,high polyreactivity
18,QVQLVESGGGLVQAGGSLRLSCAASGFTFRHNTMGWYRQAPGKERELVAAISIGGRTYYADSVKGRFTISRDNAKNTVYLQMNSLKPEDTAVYYCAKLSRGQSPGYDYWGQGTQVTVSS,high polyreactivity
19,QVQLVESGGGLVQAGGSLRLSCAASGFTFRHYAMGWYRQAPGKERELVARIRGGGVSTYYADSVKGRFTISRDNAKNTVYLQMNSLKPEDTAVYYCNAVYESWWGDYDYWGQGTQVTVSS,high polyreactivity
20,QVQLVESGGGLVQAGGSLRLSCAASGFTFRIYAMGWYRQAPGKERELVAAISWAGGSTFYADSVKGRFTISRDNAKNTVYLQMNSLKPEDTAVYYCAADTAFHYDYWGQGTQVTVSS,low polyreactivity
21,QVQLVESGGGLVQAGGSLRLSCAASGFTFRLNAMGWYRQAPGKEREMVAAISSSGGRTYYADSVKGRFTISRDNAKNTVYLQLNSLKPEDTAVYYCAADYTTRYLDGVVARGYYWGQGTQVTVSS,high polyreactivity
